Measured values as given in patent US20220088148A1 (HANMI PHARM, published 2022).
Bridges are numbered along the chain shown (N, C = ends). Where no end group is shown, it is not given here. [ ]: non-standard residue; d: D form. The star is where a group is joined. Acetyl(2-(4-imidazolyl)) = O=C(Cc1c[nH]cn1)*; Aib = CC(C)(N)C(=O)O

What follows are binders tested against human GLP-1 receptor (human, UniProt P43220 24-463) (assay: cell-based or functional assay).

Binder | In vitro activity (%) vs. GLP-1, cAMP EC50 [%]
[Acetyl(2-(4-imidazolyl))]GQGTFTSDLSKQMDSERAREFIEWLKNTGPSSGAPPPSHG [triple agonist of SEQ ID NO: 18] | < 0.1
Y[Aib]QGTFTSDYSKYLDECRAKEFVQWLLAQKGKKNDWKHNIT (bridge 16-20) [triple agonist of SEQ ID NO: 23] | 4.01
[Acetyl(2-(4-imidazolyl))]GQGTFTSDLSKQMDEERAREFIEWLLAQKPSSGAPPPSHG [triple agonist of SEQ ID NO: 17] | 0.2
H[Aib]QGTFTSDYSIAMDEIHQKDFVNWLLAQKC (bridge 16-20) [triple agonist of SEQ ID NO: 33] | 24.5
Y[Aib]QGTFTSDYSKYLDECRAKEFVQWLLDHHPSSGQPPPS (bridge 16-20) [triple agonist of SEQ ID NO: 21] | 17.8
Y[Aib]QGTFTSDYSKALDEKAAKDFVNWLLDQHPSSGQPPPSC (bridge 16-20; ends not checked) [triple agonist of SEQ ID NO: 102] | 23.3
[Acetyl(2-(4-imidazolyl))]GEGTFISDLSKYMDEQAVQLFVEWLMAGGPSSGAPPPSHG [triple agonist of SEQ ID NO: 12] | 0.4
H[Aib]QGTFTSDYSKYLDEKAQKEFVQWLLDTC (bridge 16-20) [triple agonist of SEQ ID NO: 30] | 142
Y[Aib]QGTFTSDYSKCLDEKRAKEFVQWLLDHHPSSGQPPPS (bridge 16-20) [triple agonist of SEQ ID NO: 22] | 20.1
H[Aib]QGTFTSDYSKYLDEKAAKEFVQWLLNTC (bridge 16-20) [triple agonist of SEQ ID NO: 29] | 38.5
H[Aib]QGTFTSDVSSYLDGQAQKEFIAWLVKGC [triple agonist of SEQ ID NO: 2] | 5.9
[Acetyl(2-(4-imidazolyl))]GQGTFTSDLSIQYEEEAQQDFVEWLKDTGPSSGAPPPSHG [triple agonist of SEQ ID NO: 20] | < 0.1
[Acetyl(2-(4-imidazolyl))]GQGTFTSDYSIQLDEIAVRDFVEWLKNGGPSSGAPPPSHG [triple agonist of SEQ ID NO: 14] | 28
[Acetyl(2-(4-imidazolyl))]GEGTFISDYSIQLDEIAVQDFVEWLLAQKPSSGAPPPSHG [triple agonist of SEQ ID NO: 13] | < 0.1
Y[Aib]QGTFTSDYSKALDEKAAKEFVNWLLDHHPSSGQPPPSC (bridge 16-20; ends not checked) [triple agonist of SEQ ID NO: 98] | 28.1
[Acetyl(2-(4-imidazolyl))]GEGTFTSDLSKYLDSRRQQLFVQWLKAGGPSSGAPPPSHG [triple agonist of SEQ ID NO: 11] | 1.4
[Acetyl(2-(4-imidazolyl))]GQGTFTSDLSKQMDSEAQQLFIEWLKNGGPSSGAPPPSHG [triple agonist of SEQ ID NO: 16] | 2.1
H[Aib]QGTFTSDYSKYLDEKRAQEFVCWLLAQKGKKNDWKHNIT [triple agonist of SEQ ID NO: 28] | 17.2
Y[Aib]QGTFTSDYSKALDEKAAKEFVNWLLDQHPSSGQPPPSC (bridge 16-20) [triple agonist of SEQ ID NO: 101] | 23.2
Y[Aib]QGTFTSDYSKALDEKAAKEFVQWLLDQHPSSGQPPPSC (bridge 16-20) [triple agonist of SEQ ID NO: 100] | 42.2
H[Aib]QGTFTSDYSKYLDEKACKEFVQWLLAQ (bridge 16-20) [triple agonist of SEQ ID NO: 31] | 135
Y[Aib]QGTFTSDYSKALDEKAAKDFVNWLLDHHPSSGQPPPSC (bridge 16-20; ends not checked) [triple agonist of SEQ ID NO: 99] | 20.9
[Acetyl(2-(4-imidazolyl))]GQGTFTSDLSIQYDSEHQRDFIEWLKDTGPSSGAPPPSHG [triple agonist of SEQ ID NO: 19] | < 0.1
Y[Aib]QGTFTSDYSKYLDEKRAKEFVQWLLDCHPSSGQPPPS (bridge 16-20; ends not checked) [triple agonist of SEQ ID NO: 97] | 10.5
H[Aib]QGTFTSDVSSYLLGQAAKQFIAWLVKGGGPSSGAPPPSC [triple agonist of SEQ ID NO: 3] | 1.8

Each binder was assayed against T1, human GIP receptor (human, UniProt P48546 22-466) (assay: cell-based or functional assay).
T1 sequence (looked up): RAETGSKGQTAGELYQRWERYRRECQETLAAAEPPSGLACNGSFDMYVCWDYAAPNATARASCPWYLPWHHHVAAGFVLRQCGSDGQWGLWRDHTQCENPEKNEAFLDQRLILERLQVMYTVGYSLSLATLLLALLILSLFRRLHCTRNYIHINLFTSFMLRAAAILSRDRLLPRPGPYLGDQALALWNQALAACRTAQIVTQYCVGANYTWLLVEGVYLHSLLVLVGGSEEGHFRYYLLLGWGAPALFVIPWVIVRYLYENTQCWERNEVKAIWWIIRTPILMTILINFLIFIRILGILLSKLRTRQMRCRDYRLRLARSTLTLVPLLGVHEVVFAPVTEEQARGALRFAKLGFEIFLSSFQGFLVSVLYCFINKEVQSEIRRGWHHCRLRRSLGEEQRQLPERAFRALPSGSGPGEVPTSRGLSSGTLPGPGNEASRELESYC

Binder | In vitro activity (%) vs. GIP, cAMP EC50 [%]
[Acetyl(2-(4-imidazolyl))]GQGTFTSDLSKQMDSERAREFIEWLKNTGPSSGAPPPSHG [triple agonist of SEQ ID NO: 18] | < 0.1
Y[Aib]QGTFTSDYSKYLDECRAKEFVQWLLAQKGKKNDWKHNIT (bridge 16-20) [triple agonist of SEQ ID NO: 23] | < 0.1
[Acetyl(2-(4-imidazolyl))]GQGTFTSDLSKQMDEERAREFIEWLLAQKPSSGAPPPSHG [triple agonist of SEQ ID NO: 17] | < 0.1
H[Aib]QGTFTSDYSIAMDEIHQKDFVNWLLAQKC (bridge 16-20) [triple agonist of SEQ ID NO: 33] | 10.4
Y[Aib]QGTFTSDYSKYLDECRAKEFVQWLLDHHPSSGQPPPS (bridge 16-20) [triple agonist of SEQ ID NO: 21] | 22.7
Y[Aib]QGTFTSDYSKALDEKAAKDFVNWLLDQHPSSGQPPPSC (bridge 16-20; ends not checked) [triple agonist of SEQ ID NO: 102] | 58
[Acetyl(2-(4-imidazolyl))]GEGTFISDLSKYMDEQAVQLFVEWLMAGGPSSGAPPPSHG [triple agonist of SEQ ID NO: 12] | < 0.1
H[Aib]QGTFTSDYSKYLDEKAQKEFVQWLLDTC (bridge 16-20) [triple agonist of SEQ ID NO: 30] | 0.8
Y[Aib]QGTFTSDYSKCLDEKRAKEFVQWLLDHHPSSGQPPPS (bridge 16-20) [triple agonist of SEQ ID NO: 22] | 59.7
H[Aib]QGTFTSDYSKYLDEKAAKEFVQWLLNTC (bridge 16-20) [triple agonist of SEQ ID NO: 29] | < 0.1
H[Aib]QGTFTSDVSSYLDGQAQKEFIAWLVKGC [triple agonist of SEQ ID NO: 2] | < 0.1
[Acetyl(2-(4-imidazolyl))]GQGTFTSDLSIQYEEEAQQDFVEWLKDTGPSSGAPPPSHG [triple agonist of SEQ ID NO: 20] | < 0.1
[Acetyl(2-(4-imidazolyl))]GQGTFTSDYSIQLDEIAVRDFVEWLKNGGPSSGAPPPSHG [triple agonist of SEQ ID NO: 14] | < 0.1
[Acetyl(2-(4-imidazolyl))]GEGTFISDYSIQLDEIAVQDFVEWLLAQKPSSGAPPPSHG [triple agonist of SEQ ID NO: 13] | < 0.1
Y[Aib]QGTFTSDYSKALDEKAAKEFVNWLLDHHPSSGQPPPSC (bridge 16-20; ends not checked) [triple agonist of SEQ ID NO: 98] | 47.1
[Acetyl(2-(4-imidazolyl))]GEGTFTSDLSKYLDSRRQQLFVQWLKAGGPSSGAPPPSHG [triple agonist of SEQ ID NO: 11] | < 0.1
[Acetyl(2-(4-imidazolyl))]GQGTFTSDLSKQMDSEAQQLFIEWLKNGGPSSGAPPPSHG [triple agonist of SEQ ID NO: 16] | < 0.1
H[Aib]QGTFTSDYSKYLDEKRAQEFVCWLLAQKGKKNDWKHNIT [triple agonist of SEQ ID NO: 28] | < 0.1
Y[Aib]QGTFTSDYSKALDEKAAKEFVNWLLDQHPSSGQPPPSC (bridge 16-20) [triple agonist of SEQ ID NO: 101] | 40.1
Y[Aib]QGTFTSDYSKALDEKAAKEFVQWLLDQHPSSGQPPPSC (bridge 16-20) [triple agonist of SEQ ID NO: 100] | 118
H[Aib]QGTFTSDYSKYLDEKACKEFVQWLLAQ (bridge 16-20) [triple agonist of SEQ ID NO: 31] | 2.4
Y[Aib]QGTFTSDYSKALDEKAAKDFVNWLLDHHPSSGQPPPSC (bridge 16-20; ends not checked) [triple agonist of SEQ ID NO: 99] | 57.7
[Acetyl(2-(4-imidazolyl))]GQGTFTSDLSIQYDSEHQRDFIEWLKDTGPSSGAPPPSHG [triple agonist of SEQ ID NO: 19] | < 0.1
Y[Aib]QGTFTSDYSKYLDEKRAKEFVQWLLDCHPSSGQPPPS (bridge 16-20; ends not checked) [triple agonist of SEQ ID NO: 97] | 2.6
H[Aib]QGTFTSDVSSYLLGQAAKQFIAWLVKGGGPSSGAPPPSC [triple agonist of SEQ ID NO: 3] | < 0.1

What follows are binders tested against human GCG receptor (human, UniProt P47871 26-477) (assay: cell-based or functional assay).
Sequence of human GCG receptor (P47871 26-477): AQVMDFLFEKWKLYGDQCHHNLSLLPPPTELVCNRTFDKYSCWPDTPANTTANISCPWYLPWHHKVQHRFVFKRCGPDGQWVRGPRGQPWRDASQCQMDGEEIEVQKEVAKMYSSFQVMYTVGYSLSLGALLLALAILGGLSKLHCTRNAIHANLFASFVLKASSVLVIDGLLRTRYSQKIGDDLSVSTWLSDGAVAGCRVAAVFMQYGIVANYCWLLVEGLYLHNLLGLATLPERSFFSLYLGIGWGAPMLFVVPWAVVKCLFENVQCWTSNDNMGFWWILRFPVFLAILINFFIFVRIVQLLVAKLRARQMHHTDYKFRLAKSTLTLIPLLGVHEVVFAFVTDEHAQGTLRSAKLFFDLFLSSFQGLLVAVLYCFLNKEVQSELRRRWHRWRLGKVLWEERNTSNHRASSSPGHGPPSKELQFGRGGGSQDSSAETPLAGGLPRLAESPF

Binder | In vitro activity (%) vs. Glucagon, cAMP EC50 [%]
[Acetyl(2-(4-imidazolyl))]GQGTFTSDLSKQMDSERAREFIEWLKNTGPSSGAPPPSHG [triple agonist of SEQ ID NO: 18] | < 0.1
Y[Aib]QGTFTSDYSKYLDECRAKEFVQWLLAQKGKKNDWKHNIT (bridge 16-20) [triple agonist of SEQ ID NO: 23] | 9.3
[Acetyl(2-(4-imidazolyl))]GQGTFTSDLSKQMDEERAREFIEWLLAQKPSSGAPPPSHG [triple agonist of SEQ ID NO: 17] | < 0.1
H[Aib]QGTFTSDYSIAMDEIHQKDFVNWLLAQKC (bridge 16-20) [triple agonist of SEQ ID NO: 33] | < 0.1
Y[Aib]QGTFTSDYSKYLDECRAKEFVQWLLDHHPSSGQPPPS (bridge 16-20) [triple agonist of SEQ ID NO: 21] | 267
Y[Aib]QGTFTSDYSKALDEKAAKDFVNWLLDQHPSSGQPPPSC (bridge 16-20; ends not checked) [triple agonist of SEQ ID NO: 102] | 29.5
[Acetyl(2-(4-imidazolyl))]GEGTFISDLSKYMDEQAVQLFVEWLMAGGPSSGAPPPSHG [triple agonist of SEQ ID NO: 12] | < 0.1
H[Aib]QGTFTSDYSKYLDEKAQKEFVQWLLDTC (bridge 16-20) [triple agonist of SEQ ID NO: 30] | 0.7
Y[Aib]QGTFTSDYSKCLDEKRAKEFVQWLLDHHPSSGQPPPS (bridge 16-20) [triple agonist of SEQ ID NO: 22] | 140
H[Aib]QGTFTSDYSKYLDEKAAKEFVQWLLNTC (bridge 16-20) [triple agonist of SEQ ID NO: 29] | 6
H[Aib]QGTFTSDVSSYLDGQAQKEFIAWLVKGC [triple agonist of SEQ ID NO: 2] | < 0.1
[Acetyl(2-(4-imidazolyl))]GQGTFTSDLSIQYEEEAQQDFVEWLKDTGPSSGAPPPSHG [triple agonist of SEQ ID NO: 20] | < 0.1
[Acetyl(2-(4-imidazolyl))]GQGTFTSDYSIQLDEIAVRDFVEWLKNGGPSSGAPPPSHG [triple agonist of SEQ ID NO: 14] | < 0.1
[Acetyl(2-(4-imidazolyl))]GEGTFISDYSIQLDEIAVQDFVEWLLAQKPSSGAPPPSHG [triple agonist of SEQ ID NO: 13] | < 0.1
Y[Aib]QGTFTSDYSKALDEKAAKEFVNWLLDHHPSSGQPPPSC (bridge 16-20; ends not checked) [triple agonist of SEQ ID NO: 98] | 8.2
[Acetyl(2-(4-imidazolyl))]GEGTFTSDLSKYLDSRRQQLFVQWLKAGGPSSGAPPPSHG [triple agonist of SEQ ID NO: 11] | < 0.1
[Acetyl(2-(4-imidazolyl))]GQGTFTSDLSKQMDSEAQQLFIEWLKNGGPSSGAPPPSHG [triple agonist of SEQ ID NO: 16] | < 0.1
H[Aib]QGTFTSDYSKYLDEKRAQEFVCWLLAQKGKKNDWKHNIT [triple agonist of SEQ ID NO: 28] | 1.6
Y[Aib]QGTFTSDYSKALDEKAAKEFVNWLLDQHPSSGQPPPSC (bridge 16-20) [triple agonist of SEQ ID NO: 101] | 13.9
Y[Aib]QGTFTSDYSKALDEKAAKEFVQWLLDQHPSSGQPPPSC (bridge 16-20) [triple agonist of SEQ ID NO: 100] | 12.7
H[Aib]QGTFTSDYSKYLDEKACKEFVQWLLAQ (bridge 16-20) [triple agonist of SEQ ID NO: 31] | 2.2
Y[Aib]QGTFTSDYSKALDEKAAKDFVNWLLDHHPSSGQPPPSC (bridge 16-20; ends not checked) [triple agonist of SEQ ID NO: 99] | 14.9
[Acetyl(2-(4-imidazolyl))]GQGTFTSDLSIQYDSEHQRDFIEWLKDTGPSSGAPPPSHG [triple agonist of SEQ ID NO: 19] | < 0.1
Y[Aib]QGTFTSDYSKYLDEKRAKEFVQWLLDCHPSSGQPPPS (bridge 16-20; ends not checked) [triple agonist of SEQ ID NO: 97] | 62.8
H[Aib]QGTFTSDVSSYLLGQAAKQFIAWLVKGGGPSSGAPPPSC [triple agonist of SEQ ID NO: 3] | < 0.1
